Experimental findings from US20190112365A1 (EISAI R AND D MANAGEMENT, published 2019) are described below.

As a reminder, the Kd is a measure of binding affinity in units of concentration. Usually koff stands for a measure of how fast the partners let go of each other. As usually defined, the kon is the rate constant with which the complex forms.

Experiment [1] addresses T1, Human Tau 2N4R, wild type, recombinant full length (human, UniProt P10636 2-758).
T1 construct: Full length 2N4R isoform; monomer in SPR and ELISA; heparin-induced aggregates or seeds in the functional assays; also called Tau441; Tau-441
Put plainly: SPR BIAcore T100, mAb captured by protein A/G, Tau injected. As to the method: (§1) Kinetic analysis of the interaction of the anti-Tau mouse monoclonal antibodies generated in Example 1 with human wild type Tau (2N4R) and the equivalent P301S mutant Tau protein was conducted using a BIAcore™ T100 instrument. Recombinant human full length Tau proteins were expressed in E. coli and then purified by Cellufine™ phosphate affinity chromatography followed by ammonium sulfate precipitation and reverse phase HPLC chromatography.
(§2) Purified antibodies from hybridomas were captured by protein A/G immobilized on a CM5 sensor chip (GE Healthcare). The wild type and P301S Tau proteins were then injected onto the sensor chip at five different concentrations and the affinity (equilibrium dissociation constant, KD) was calculated according to the manufacturer's instruction.
For orientation: Surface plasmon resonance follows binding to a sensor surface in real time, without labels.

In experiment [2] the target is T2, P301S mutant human 2N4R Tau, recombinant full length (human, UniProt P10636 2-758).
T2 construct: The equivalent P301S mutant of 2N4R Tau; also called P301S-2N4R Tau; P301S Tau
T2 sequence (P10636 other isoform, or with tags, fused parts or gaps P301S P301S limits assumed): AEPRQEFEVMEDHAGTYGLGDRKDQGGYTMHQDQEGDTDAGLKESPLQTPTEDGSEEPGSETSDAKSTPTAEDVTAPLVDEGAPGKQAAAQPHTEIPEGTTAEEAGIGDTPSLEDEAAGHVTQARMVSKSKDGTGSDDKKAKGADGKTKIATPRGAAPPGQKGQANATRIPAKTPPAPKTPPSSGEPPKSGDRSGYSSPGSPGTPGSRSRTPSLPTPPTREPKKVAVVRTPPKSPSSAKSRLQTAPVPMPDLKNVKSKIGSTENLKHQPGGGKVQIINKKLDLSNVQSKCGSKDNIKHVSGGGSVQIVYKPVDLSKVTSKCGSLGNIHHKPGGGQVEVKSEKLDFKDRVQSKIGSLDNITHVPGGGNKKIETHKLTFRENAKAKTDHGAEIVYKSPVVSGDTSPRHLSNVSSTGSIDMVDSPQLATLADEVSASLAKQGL
The description is as above. The method, then:
as §1, §2

The target of experiment [3] is T1, Human Tau 2N4R, wild type, recombinant …. Put plainly: SPR BIAcore, mAb captured by anti-mouse IgG, Tau flowed, 1:1 Langmuir. The method, then:
All experiments were performed using a BIAcore™ T-100 instrument (GE Healthcare). 10 μL anti-human IgG (monoclonal mouse anti-human Fc) from human antibody capture kit (GE Healthcare) was diluted to 25 μL/mL in 200 μL final immobilization buffer (10 mM sodium acetate, pH 5.0). The flow rate was set to 5 μL/min, flowpath 1. Fifty μL N-hydroxysuccinamide (NETS) and 50 μL 1-ethyl-3-(3-dimethylaminopropyl) carbidiimide (EDC) were mixed and injected for 420 sec to activate the CM5 chip surface. The diluted antibody was injected for 360 seconds followed by 1 M ethanolamine for 420 seconds. The flowpath was then switched to flowpath 2. A new EDC/NHS mixture was prepared and the procedure was repeated for flow cell 2. The surface was conditioned by 2 injections of 30 sec using flowpath 1, 2 at 30 μL/min of 3M MgCl₂. For the anti-mouse surface, 10 μL anti-mouse IgG (polyclonal rabbit anti-mouse IgG) from mouse antibody capture kit (GE Healthcare) was diluted to 30 μL/mL in 324 μL final immobilization buffer (10 mM sodium acetate, pH 5.0). The flow rate was set to 5 μL/min, flowpath 3. Fifty μL NHS and 50 μL EDC were mixed and injected for 420 sec to activate the chip surface. The diluted antibody was injected for 420 sec. 1 M ethanolamine was injected for 420 sec. Flow path was switched to flowpath 4. A new EDC/NHS mixture was prepared and the procedure was repeated for flow cell 4. The surface was conditioned by 2 injections of 30 sec using flowpath 3, 4 at 30 μL/min of 10 mM glycine, pH 1.7.
Binding of humanized and mouse antibodies were analyzed by BIAcore™ to determine their relative association rates (ka), dissociation rates (kd), and equilibrium binding constants (KD). Anti-mouse or anti-human antibodies were immobilized on a CM5 chip and sample mAbs were captured on the chip. 2N4R Tau was flowed over the chip and binding observed. The binding constants kₐ, kd, and KD were determined using a 1:1 Langmuir fitting model. Both 7G6-HCzu12-based mAbs had similar kₐ and kd values (Table 8). However, the kₐ of 7G6-HCzu11 was decreased, though the kd was unaffected. Therefore, human residues in the Vh3 framework impact binding to Tau.

Experiment [4] has as its target T3, HVPGG site of Tau (15-mer array peptides containing HVPGG) (human).
T3 peptide: HVPGG
Nature of the experiment: peptide microarray; HVPGG site of the fourth repeat region against HQPGG (repeat region 1). The method, then: The diluted antibody was incubated on the chip for 16 hours at 4° C. with shaking at 140 rpm. Primary antibody was removed and the chip was washed in PBS (pH 7.4)/0.05% Tween 20. Wash buffer was removed and goat anti-mouse IgG (H+L) DyLight™680 (1:5000) and an anti-HA tag DyLight™ 800 (1:2000) in the same buffer as the primary antibody was then incubated for 45 minutes at room temperature on the chip. Detection antibody was removed and the chip was washed once again as previously. Fluorescence images were acquired on the LI-COR Odyssey™ Imaging System and the microarray data was finally analyzed using the PepSlide™ Analyser software.

T1 sequence (P10636 other isoform, or with tags, fused parts or gaps limits assumed): as the sequence (P10636 other isoform, or with tags, fused parts or gaps P301S P301S limits assumed) above, with S300P counted along it

B1: murine 7G6 antibody (antibody, mouse IgG2b, V domains shown)
VH: QVQLLQPGAELVKPGASVIMSCKASGYTFTTYWITWVKQRPGQGLEWIGDIYPGSSICNYNEKFKSKATLTVDTSSSTAYMQLNSLTSEDSAVYYCAREDGYDAWFAYWGQGTLVTVSA
VL: DVLMTQTPLSLPVSLGDQASISCRSSQSILHSNGNTYLEWYLQKPGQSPKLLICKVSNRFSGVPDRFSGSGSGTDFTLKISRVEAEDLGVYYCFQGSHVPFTFGSGTKLEIK
notes: Mouse IgG2b, kappa, purified from hybridoma; also called ms7G6; mouse 7G6
Turning to B1, the equilibrium dissociation constant (Kd) in experiment [1] was found to be 0.052 nM. The Kd in experiment [2] was found to be 0.57 nM. For the same molecule, in experiment [3], the Kd worked out at 3.31 nM, the koff came out at 0.00153 s⁻¹ and the kon turned out to be 464000 M⁻¹ s⁻¹. The “fold preference in binding (average signal intensities)” value in experiment [4] was determined as 35 fold.
